Experimental data from patent publication US20170327594A1 (UNIVERSIT T STUTTGART, published 2017).
Each block holds one binder with its values, some of them ahead of it.

How the values were obtained:
[1] = target: T1, EGFR-Fc fusion protein (UniProt P00533 25-645, limits assumed); assay: ELISA titration on immobilized EGFR; the scFv is the weaker comparator
T1 construct: extracellular domain; also called Fc fusion protein of the extracellular region of EGFR; immobilized EGFR; not shown: Fc part

[2] = target: T1, EGFR-Fc fusion protein; assay: ELISA on immobilized EGFR-Fc
[3] = target: T2, EGFR on tumor cell lines (UniProt P00533 25-1210, limits assumed); assay: flow cytometry, Colo205 and NCI-H460 cells
T2 construct: whole, on cells; Endogenous receptor of tumor cell lines; also called EGFR on A431, HT1080, NCI-H460, Colo205 cells

[4] = target: T3, HER2-Fc fusion protein (UniProt P04626 23-652, limits assumed); assay: ELISA on immobilized HER2-Fc
T3 construct: extracellular domain; also called Fc fusion protein of the extracellular region of HER2; not shown: Fc part

[5] = target: T2, EGFR on tumor cell lines; assay: cell-based or functional assay
[6] = target: T4, recombinant TRAIL-R1 (receptor-Fc fusion protein) (UniProt O00220 24-239, limits assumed); assay: ELISA on recombinant receptor-Fc
T4 construct: also called TRAIL receptor 1; not shown: Fc part

[7] = target: T2, EGFR on tumor cell lines; assay: cell-based or functional assay; remark: listed apart in the source
[8] = target: T1, EGFR-Fc fusion protein; assay: ELISA on immobilized receptor-Fc
[9] = target: T5, HER3-Fc fusion protein (UniProt P21860 20-643, limits assumed); assay: ELISA on immobilized receptor-Fc
T5 construct: extracellular domain; Negative control; also called Fc fusion protein of the extracellular region of HER3; not shown: Fc part

[10] = target: T2, EGFR on tumor cell lines; assay: flow cytometry, NCI-H460 cells
Experimental: Bound proteins were detected with a FITC-labelled anti-His-tag antibody.
Furthermore, the antibody-MHD2 fusion proteins were analyzed by flow cytometry for binding to different tumor cell lines expressing various amounts of EGFR and HER2 (FIG. 4b).

binding result [1]: binds
B1: anti-EGFR scFv (hu225) (scFv)
scFv: EVQLVESGGGLVQPGGSLRLSCAASGFSLTNYGVHWVRQAPGKGLEWLGVIWSGGNTDYNTPFTSRFTISRDNSKNTLYLQMNSLRAEDTAVYYCARALTYYDYEFAYWGQGTTVTVSSGGGGSGGGGSGGGGSDIQLTQSPSFLSASVGDRVTITCRASQSIGTNIHWYQQKPGKAPKLLIKYASESISGVPSRFSGSGSGTEFTLTISSLQPEDFATYYCQQNNNWPTTFGAGTKLEIKR
notes: also called monovalent anti-EGFR scFv; scFv directed against EGFR

binding result [2]: binds
binding result [3]: binds
binding result [4]: no binding
B2: scFvEGFR-EHD2 (scFv)
chain: DAAQPAMAEVQLVESGGGLVQPGGSLRLSCAASGFSLTNYGVHWVRQAPGKGLEWLGVIWSGGNTDYNTPFTSRFTISRDNSKNTLYLQMNSLRAEDTAVYYCARALTYYDYEFAYWGQGTTVTVSSGGGGSGGGGSGGGGSDIQLTQSPSFLSASVGDRVTITCRASQSIGTNIHWYQQKPGKAPKLLIKYASESISGVPSRFSGSGSGTEFTLTISSLQPEDFATYYCQQNNNWPTTFGAGTKLEIKRGSLGGSGGDFTPPTVKILQSSCDGGGHFPPTIQLLCLVSGYTPGTINITWLEDGQVMDVDLSTASTTQEGELASTQSELTLSQKHWLSDRTYTCQVTYQGHTFEDSTKKCADSNGGGSGGGTGSEFAAAHHHHHH
notes: Bivalent homodimer: anti-EGFR scFv at the N-terminus of the IgE heavy chain domain 2, hexahistidyl-tagged; also called scFv-EHD2

binding result [6]: binds
binding result [4]: no binding
B3: scFvEGFR-EHD2-scTRAIL (other)
chain: DYKDDDDKGGGGSAAQPAMAEVQLVESGGGLVQPGGSLRLSCAASGFSLTNYGVHWVRQAPGKGLEWLGVIWSGGNTDYNTPFTSRFTISRDNSKNTLYLQMNSLRAEDTAVYYCARALTYYDYEFAYWGQGTTVTVSSGGGGSGGGGSGGGGSDIQLTQSPSFLSASVGDRVTITCRASQSIGTNIHWYQQKPGKAPKLLIKYASESISGVPSRFSGSGSGTEFTLTISSLQPEDFATYYCQQNNNWPTTFGAGTKLEIKRAAAGGSGGDFTPPTVKILQSSCDGGGHFPPTIQLLCLVSGYTPGTINITWLEDGQVMDVDLSTASTTQEGELASTQSELTLSQKHWLSDRTYTCQVTYQGHTFEDSTKKCADSNGGSGGEFTRGTSEETISTVQEKQQNISPLVRERGPQRVAAHITGTRGRSNTLSSPNSKNEKALGRKINSWESSRSGHSFLSNLHLRNGELVIHEKGFYYIYSQTYFRFQEEIKENTKNDKQMVQYIYKYTSYPDPILLMKSARNSCWSKDAEYGLYSIYQGGIFELKENDRIFVSVTNEHLIDMDHEASFFGAFLVGGGGSGGGSTSEETISTVQEKQQNISPLVRERGPQRVAAHITGTRGRSNTLSSPNSKNEKALGRKINSWESSRSGHSFLSNLHLRNGELVIHEKGFYYIYSQTYFRFQEEIKENTKNDKQMVQYIYKYTSYPDPILLMKSARNSCWSKDAEYGLYSIYQGGIFELKENDRIFVSVTNEHLIDMDHEASFFGAFLVGGGGSGGGSTSEETISTVQEKQQNISPLVRERGPQRVAAHITGTRGRSNTLSSPNSKNEKALGRKINSWESSRSGHSFLSNLHLRNGELVIHEKGFYYIYSQTYFRFQEEIKENTKNDKQMVQYIYKYTSYPDPILLMKSARNSCWSKDAEYGLYSIYQGGIFELKENDRIFVSVTNEHLIDMDHEASFFGAFLVG
notes: Homodimer: anti-EGFR scFv, EHD2, single-chain TRAIL, FLAG-tagged; also called scFv-EHD2-scTRAIL; anti-EGFR scFv-EHD2-scTRAIL
IC50 (nM), in vitro cytotoxicity, Colo205, no bortezomib, no cetuximab [5]: 0.5 nM
IC50 (nM), in vitro cytotoxicity, Colo205, with bortezomib, no cetuximab [5]: 0.14 nM
IC50 (nM), in vitro cytotoxicity, Colo205, with bortezomib, with cetuximab [5]: 1.43 nM
IC50 (nM), in vitro cytotoxicity, NCI-H460, no bortezomib, no cetuximab [5]: 0.32 nM
IC50 (nM), in vitro cytotoxicity, NCI-H460, with bortezomib, no cetuximab [5]: 0.02 nM
IC50 (nM), in vitro cytotoxicity, NCI-H460, with bortezomib, with cetuximab [5]: 0.15 nM
cytotoxic activity against EHD2-scTRAIL, no bortezomib (NCI-H460, Colo205) [7]: ~20 fold

binding result [8]: binds
binding result [9]: no binding
binding result [10]: binds
B4: scFvEGFR-MHD2 (scFv)
chain: DAAQPAMAEVQLVESGGGLVQPGGSLRLSCAASGFSLTNYGVHWVRQAPGKGLEWLGVIWSGGNTDYNTPFTSRFTISRDNSKNTLYLQMNSLRAEDTAVYYCARALTYYDYEFAYWGQGTTVTVSSGGGGSGGGGSGGGGSDIQLTQSPSFLSASVGDRVTITCRASQSIGTNIHWYQQKPGKAPKLLIKYASESISGVPSRFSGSGSGTEFTLTISSLQPEDFATYYCQQNNNWPTTFGAGTKLEIKRGSLGGSGGAELPPKVSVFVPPRDGFFGNPRKSKLICQATGFSPRQIQVSWLREGKQVGSGVTTDQVQAEAKESGPTTYKVTSTLTIKESDWLGQSMFTCRVDHRGLTFQQNASSMCVPDGGGSGGGTGSEFAAAHHHHHH
notes: Bivalent homodimer: humanized anti-EGFR scFv (hu225) at the N-terminus of the IgM heavy chain domain 2, C-terminal His6; also called scFvA-MHD2; scFv-MHD2
